Ends that are not written are not given here.
Molecular target: T1, TRAP1 (human mitochondrial Hsp90) fused to SpyTag (human, UniProt Q12931 60-704, limits assumed)
T1 construct: Applied at 270 nM; also called TRAP1-SpyTag; TRAP1 with SpyTag
T1 sequence: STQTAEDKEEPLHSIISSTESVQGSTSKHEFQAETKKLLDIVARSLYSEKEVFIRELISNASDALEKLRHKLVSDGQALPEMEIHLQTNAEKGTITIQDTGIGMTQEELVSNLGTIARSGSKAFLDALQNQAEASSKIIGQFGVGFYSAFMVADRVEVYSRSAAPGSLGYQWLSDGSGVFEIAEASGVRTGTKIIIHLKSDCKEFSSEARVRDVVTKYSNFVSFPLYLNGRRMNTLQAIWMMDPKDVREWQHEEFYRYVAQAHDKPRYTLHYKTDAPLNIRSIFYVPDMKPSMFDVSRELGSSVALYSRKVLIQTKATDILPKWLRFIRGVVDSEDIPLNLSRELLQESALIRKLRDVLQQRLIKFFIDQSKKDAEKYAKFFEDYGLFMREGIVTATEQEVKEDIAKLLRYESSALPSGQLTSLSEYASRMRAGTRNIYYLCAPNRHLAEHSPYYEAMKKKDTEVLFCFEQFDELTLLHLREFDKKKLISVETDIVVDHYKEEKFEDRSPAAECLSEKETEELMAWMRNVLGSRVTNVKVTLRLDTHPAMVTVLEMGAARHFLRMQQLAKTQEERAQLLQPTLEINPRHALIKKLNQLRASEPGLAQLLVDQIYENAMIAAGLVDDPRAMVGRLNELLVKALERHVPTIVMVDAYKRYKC
Assay: cryo-EM particle density on SpyTag affinity grid after washing
Procedure: The irreversible covalent bond forms within minutes and is highly specific and robust, paving the way for “purification on the grid”. A buffer with a pH of 7.5 containing 20 mM HEPES, 60 mM KCl was used throughout the process. SpyCatcher was diluted with buffer to a final concentration of 1.4 μM. SpyTag peptide was first dissolved in DMSO to a concentration of 560 μM and then diluted with buffer to a final concentration of 2.8 μM. […] The grid was washed with DI water and ethanol 3 times, and dried in ambient for 1 hour. Then the grid was picked up by tweezers from VITROBOT™ IV (Fisher Thermo Scientfic) and placed horizontally.
After coupling the SpyTag or SpyCatcher to the maleimide grids, incubation with a cognate-tagged protein of interest efficiently formed a stable attachment in a matter of minutes. In a first example, a SpyTag grid was exposed to a dilute solution (270 nM) of the dimeric mitochondrial Hsp90 molecular chaperone (TRAP1, ˜150KDa) fused to either SpyTag (control) or SpyCatcher (cognate sample, total molecular weight ˜165KDa). The grids were extensively washed to remove unbound or loosely adsorbed proteins. TRAP1 with SpyCatcher or SpyTag was diluted in buffer with 1 mM ADP-BeFₓ/MgCl₂ and was incubated at 37° C. for 30 min to achieve a homogenous closed state of TRAP1²⁴. The concentration of TRAP1 was 270 nM in all cases. […]

B1: SpyTag peptide anchored to the graphene oxide grid via a PEG spacer (peptide)
peptide: VPTIVMVDAYKRYKC
modifications: also: Cys coupled to azide-PEG-maleimide on graphene oxide film, position not given here
notes: also called SpyTag grid
- binding result: no binding (tested: 270 nM)

Source: US20210310910A1 (University of California, published 2021)
